Drawing on patent US20110027235, this text covers activity (% targeting efficiency) for two sequences.

Data set [1] concerns ZFN 16234 (OCT4 pair 3, L) (synthetic). The data set can be described thus: cell_activity. As to conditions: ZFN pair 3 with 16233, 2.5 ug, BG01 hESC; only 2 clones; 0% at 10 ug (1 clone); labelled pair 2 in Table 3.
The test system of data set [2] is ZFN 16233 (OCT4 pair 3, R) (synthetic). The experiment in a line: cell_activity. The note with it: ZFN pair 3 with 16234, 2.5 ug, BG01 hESC; only 2 clones; 0% at 10 ug (1 clone); labelled pair 2 in Table 3.

In data set [1], “CCCAGGAGAGGAGCAGGCAGGGTCAGCT (double strand) [OCT4 target of 16234]” yielded an activity (% targeting efficiency) of 50.

Consider “GCCAGGTCTGGGCAGCTGCAGGTGACCA (double strand) [OCT4 target of 16233]”, for which the activity (% targeting efficiency) in data set [2] is 50.
